Patent publication US20190352411A1 (ALLIGATOR BIOSCIENCE, published 2019)
Read-outs that look alike come from different tables or passages of the source.

Key:
[1] = molecular target: T1, human FcγRIIb (R&D Systems #1460-CD-050) (human, UniProt P31994 46-217, limits assumed); test: Octet (BLI), antibody captured on FAB2G tips, soluble FcγR as analyte, 1:1 model
T1 construct: Soluble analyte in the Octet assay
T1 sequence (looked up): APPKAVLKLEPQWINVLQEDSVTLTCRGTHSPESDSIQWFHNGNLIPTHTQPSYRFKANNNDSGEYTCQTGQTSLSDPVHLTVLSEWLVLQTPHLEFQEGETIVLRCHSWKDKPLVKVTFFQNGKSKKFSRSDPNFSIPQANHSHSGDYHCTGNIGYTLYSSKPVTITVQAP
From the text: (§1) The processed data was fitted using a 1:1 Langmuir binding model with X² as a measurement of fitting accuracy.

[2] = molecular target: T2, human FcγRIIa (R&D Systems #1330-CD-050) (human, UniProt P12318 36-218, limits assumed); test: as above
T2 construct: Soluble analyte in the Octet assay
T2 sequence (looked up): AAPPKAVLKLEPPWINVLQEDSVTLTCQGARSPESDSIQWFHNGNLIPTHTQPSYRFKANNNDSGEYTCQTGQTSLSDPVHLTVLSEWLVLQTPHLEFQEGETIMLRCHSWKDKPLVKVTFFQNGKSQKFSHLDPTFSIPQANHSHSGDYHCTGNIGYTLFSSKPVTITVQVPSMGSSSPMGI
From the text: as §1

[3] = molecular target: T3, human CD137 on transfected CHO cells (CHO-huCD137) (human); test: flow cytometry on CHO-huCD137 cells; 95% confidence interval of the EC50
T3 construct: domain: transmembrane and intracellular part
T3 sequence (P25942 other isoform, or with tags, fused parts or gaps limits assumed): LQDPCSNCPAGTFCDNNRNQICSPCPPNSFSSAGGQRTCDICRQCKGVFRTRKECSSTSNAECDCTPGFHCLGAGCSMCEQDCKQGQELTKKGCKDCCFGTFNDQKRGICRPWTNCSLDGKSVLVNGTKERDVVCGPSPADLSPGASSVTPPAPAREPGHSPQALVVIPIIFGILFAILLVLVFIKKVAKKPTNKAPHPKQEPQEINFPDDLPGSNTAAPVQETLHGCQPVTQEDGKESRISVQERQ
Description: (§2) Binding and EC50 was determined using flow cytometric of CHO cells transfected with human CD137, cynomolgus CD137 or empty vector. The extracellular part of human or cynomolgus CD137 was fused to the transmembrane and intracellular part of human CD40 and cloned into pcDNA3.1. The vector was subsequently stably transfected into CHO cells. […] CD137-transfected and empty vector-transfected cells were incubated with CD137 antibodies for at least 1 h at 4° C. to saturate the binding. In order to minimize antibody internalization, 0.05% sodium azide was used in the incubation buffer and all work was performed on ice. The CD137 antibodies were detected using PE-conjugated anti-hIgG antibody (109-115-098, Jackson Immunoresearch laboratories), incubated for 30 min at 4° C. Directly after staining the cells were fixed with a paraformaldehyde solution (10× concentrate BD CellFIX, BD biosciences #340181). Cells were analyzed by flow cytometry using FACSVerse (BD Biosciences). The median fluorescence intensity (MFI) for each sample was determined and the dose response data was analysed using Graph Pad Prism.
(§3) MFI data was normalized for each antibody, where 0% is defined as the lowest value and 100% is the highest value in the dose titration for each antibody.

[4] = molecular target: T4, cynomolgus CD137 on transfected CHO cells (CHO-cyCD137) (cynomolgus (Macaca fascicularis); human); test: flow cytometry on CHO-cyCD137 cells; 95% confidence interval of the EC50
T4 construct: extracellular domain;domain: transmembrane and intracellular part; also called cyno CD137
T4 sequence (P25942 other isoform, or with tags, fused parts or gaps): as the sequence (P25942 other isoform, or with tags, fused parts or gaps limits assumed) above, with P4L, N19S, R50K, T66I, P67S, F69Y, G75E, V149A counted along it

[5] = molecular target: T5, 1554: Human CD137 with mouse domains 3B, 4A and 4B (aa 97-159) (human; mouse, UniProt P20334 96-159); test: flow cytometry on transfected 293-F cells, human/mouse CD137 chimera
T5 construct: domain: domains 3B, 4A and 4B (aa 97-159); Human/mouse chimera transiently expressed on FreeStyle 293-F cells
T5 sequence (P20334 other isoform, or with tags, fused parts or gaps limits assumed): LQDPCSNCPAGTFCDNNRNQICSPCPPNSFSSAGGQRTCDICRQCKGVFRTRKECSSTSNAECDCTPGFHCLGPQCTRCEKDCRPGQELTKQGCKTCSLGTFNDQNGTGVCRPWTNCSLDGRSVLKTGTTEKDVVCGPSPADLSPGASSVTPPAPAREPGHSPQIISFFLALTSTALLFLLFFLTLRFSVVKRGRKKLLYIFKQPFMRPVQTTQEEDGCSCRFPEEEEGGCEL
Description: (§4) The ability of each antibody to bind to a panel of human/mouse CD137 chimeras expressed on the surface of transfected cells was analyzed by flow cytometry.
(§5) The chimeras were designed by exchanging domains or modules of the human CD137 with the corresponding mouse domain. Genes of CD137 human/mouse chimeras were synthesized (GenScript) and constructs cloned into pcDNA3.1 vector (Invitrogen) and transiently transfected into FreeStyle 293-F cells (Invitrogen). The transfected cells were incubated with CD137 antibodies and control antibodies, followed by incubation with anti-human IgG-PE (Jackson Immunoresearch) for detection and analyzed with FACS Verse (BD Biosciences). Binding to the different chimeric constructs was calculated as relative MFI compared to the binding of the isotype control, followed by normalization to the full-length human CD137 construct to minimize the effect of affinity differences between individual antibodies.

[6] = molecular target: T6, 1552: Human CD137 with mouse domains 2B, 3A and 3B (aa 64-118) (human; mouse, UniProt P20334 63-117); test: as above
T6 construct: Human/mouse chimera transiently expressed on FreeStyle 293-F cells
T6 sequence (P20334 other isoform, or with tags, fused parts or gaps limits assumed): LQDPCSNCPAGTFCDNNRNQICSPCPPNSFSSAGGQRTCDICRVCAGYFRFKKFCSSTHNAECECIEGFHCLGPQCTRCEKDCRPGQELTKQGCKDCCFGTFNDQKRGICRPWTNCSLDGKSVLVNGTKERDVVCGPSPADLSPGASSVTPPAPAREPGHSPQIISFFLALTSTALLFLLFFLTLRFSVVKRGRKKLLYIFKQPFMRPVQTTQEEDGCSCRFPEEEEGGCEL
Description: as §4, §5

[7] = molecular target: T7, 1555: Human CD137 with mouse domains 1 and 4B and region of unknown function (aa 24-46 and aa 139-186) (human; mouse, UniProt P20334 24-45; P20334 139-185); test: as above
T7 construct: Human/mouse chimera transiently expressed on FreeStyle 293-F cells
T7 sequence (P20334 other isoform, or with tags, fused parts or gaps limits assumed): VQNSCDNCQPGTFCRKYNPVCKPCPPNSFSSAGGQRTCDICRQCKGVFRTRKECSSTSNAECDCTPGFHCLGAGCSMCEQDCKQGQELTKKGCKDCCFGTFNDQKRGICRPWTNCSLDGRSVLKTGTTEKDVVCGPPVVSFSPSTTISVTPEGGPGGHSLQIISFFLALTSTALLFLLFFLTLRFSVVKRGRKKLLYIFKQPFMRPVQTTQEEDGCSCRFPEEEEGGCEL
Description: as §4, §5

[8] = molecular target: T8, 1550: Human CD137 with mouse domains 1, 2A and 2B (aa 24-86) (human; mouse, UniProt P20334 24-85); test: as above
T8 construct: domain: domains 1, 2A and 2B (aa 24-86); Human/mouse chimera transiently expressed on FreeStyle 293-F cells; Limits of the human pieces are worked out from the printed aa range
T8 sequence (P20334 other isoform, or with tags, fused parts or gaps limits assumed): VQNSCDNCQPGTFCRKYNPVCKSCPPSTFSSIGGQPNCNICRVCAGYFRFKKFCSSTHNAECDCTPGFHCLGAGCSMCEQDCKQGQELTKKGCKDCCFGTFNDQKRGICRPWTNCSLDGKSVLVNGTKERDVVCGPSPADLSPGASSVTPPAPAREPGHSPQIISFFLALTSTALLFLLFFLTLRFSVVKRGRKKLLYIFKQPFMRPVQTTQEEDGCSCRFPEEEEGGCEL
Description: as §4, §5

[9] = molecular target: T9, 1551: Human CD137 with mouse domains 2A, 2B and 3A (aa 47-96) (human; mouse, UniProt P20334 46-95); test: as above
T9 construct: domain: domains 2A, 2B and 3A (aa 47-96); Human/mouse chimera transiently expressed on FreeStyle 293-F cells
T9 sequence (P20334 other isoform, or with tags, fused parts or gaps limits assumed): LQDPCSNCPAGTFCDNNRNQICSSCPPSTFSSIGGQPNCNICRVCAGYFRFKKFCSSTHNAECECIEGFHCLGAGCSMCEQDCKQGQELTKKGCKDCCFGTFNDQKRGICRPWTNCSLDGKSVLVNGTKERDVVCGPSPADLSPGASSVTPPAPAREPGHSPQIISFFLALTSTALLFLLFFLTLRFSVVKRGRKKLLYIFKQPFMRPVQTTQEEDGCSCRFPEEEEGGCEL
Description: as §4, §5

[10] = molecular target: T10, 1553: Human CD137 with mouse domains 3A, 3B and 4A (aa 87-133) (human; mouse, UniProt P20334 86-133); test: as above
T10 construct: domain: domains 3A, 3B and 4A (aa 87-133); Human/mouse chimera transiently expressed on FreeStyle 293-F cells
T10 sequence (P20334 other isoform, or with tags, fused parts or gaps limits assumed): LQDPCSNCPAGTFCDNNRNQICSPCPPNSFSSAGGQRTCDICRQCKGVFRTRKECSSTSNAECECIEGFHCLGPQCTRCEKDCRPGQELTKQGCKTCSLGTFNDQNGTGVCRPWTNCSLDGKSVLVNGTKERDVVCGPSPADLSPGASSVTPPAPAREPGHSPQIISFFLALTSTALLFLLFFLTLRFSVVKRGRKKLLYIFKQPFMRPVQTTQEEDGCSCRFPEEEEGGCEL
Description: as §4, §5

[11] = molecular target: T4, cynomolgus CD137 on transfected CHO …; test: flow cytometry on CHO-cyCD137 cells; 95% confidence interval of the EC50; remark: listed apart in the source
Description: as §2, §3

[12] = molecular target: T3, human CD137 on transfected CHO cells …; test: flow cytometry on CHO-huCD137 cells; 95% confidence interval of the EC50; remark: listed apart in the source
Description: as §2, §3

[13] = molecular target: cynomolgus CD137 (Acro Biosystems #41B-C52H4) (cynomolgus, UniProt A9YYE7 24-186); test: Octet (BLI), antibody amine-coupled to ARG2 biosensor, soluble CD137 as analyte, 1:1 model
Chain of cynomolgus CD137 (Acro Biosystems #41B-C52H4) (A9YYE7 entry or part of it): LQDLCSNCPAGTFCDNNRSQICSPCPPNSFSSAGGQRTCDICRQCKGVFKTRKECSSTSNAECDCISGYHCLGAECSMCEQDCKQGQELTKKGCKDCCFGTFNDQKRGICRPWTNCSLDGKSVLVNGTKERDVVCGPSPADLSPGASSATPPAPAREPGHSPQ
Description: Materials and method CD137 affinity was determined using the Octet Red 96 platform (ForteBio). […] 7 2-fold serial dilutions of CD137 (Acro Biosystems #41B-H5227 and #41B-C52H4) from 100 nM was prepared in 1× kinetic buffer (ForteBio #18-1092). Association was measured for 180 s followed by dissociation for 180 s in 1× kinetic buffer. 10 mM Glycine pH 2.2 was used for regeneration.
Data generated was referenced by reference well subtraction (1188), the baseline was aligned with the y-axis, inter-step correlation by alignment against association was performed and the data was smoothed by a Savitzky-Golay filtering in the data analysis software (v.9.0.0.14). The processed data was fitted using a 1:1 Langmuir binding model with X² as a measurement of fitting accuracy.

Kd [1]: 2700 nM
Kd [2]: 587 nM
EC50 [3]: 0.21 to 0.31 µg/mL
EC50 [4]: 0.13 to 0.24 µg/mL
MFI antibody/isotype control, normalized to full-length human CD137 [5]: 0.16
MFI antibody/isotype control, normalized to full-length human CD137 [6]: 0.19
MFI antibody/isotype control, normalized to full-length human CD137 [7]: 0.26
MFI antibody/isotype control, normalized to full-length human CD137 [8]: 0.22
MFI antibody/isotype control, normalized to full-length human CD137 [9]: 0.37
MFI antibody/isotype control, normalized to full-length human CD137 [10]: 0.17
EC50 [11]: 0.41 to 0.56 nM
EC50 [12]: 0.16 to 0.27 nM
Kd [13]: 10 nM
B1: REF2 (antibody)
chain 1: not shown
chain 2: DIVMTQSPDSLSVSLGERATINCRASKSVDSYGNSFMHWYQQKPGQPPKLLIYLASNLESGVPDRFSGSGSGTDFTLTISSLQAEDVAVYYCQQNNEDPRTFGGGTKVEIKRTVAAPSVFIFPPSDEQLKSGTASVVCLLNNFYPREAKVQWKVDNALQSGNSQESVTEQDSKDSTYSLSSTLTLSKADYEKHKVYACEVTHQGLSSPVTKSFNRGEC
